41 molecules from US20250026849A1 (ARCELLX, published 2025) can be followed below.

The chains are these.
T1: P26 (human, UniProt P02771 381-609, limits assumed)
T1 construct: also called AFP p26
T1 sequence: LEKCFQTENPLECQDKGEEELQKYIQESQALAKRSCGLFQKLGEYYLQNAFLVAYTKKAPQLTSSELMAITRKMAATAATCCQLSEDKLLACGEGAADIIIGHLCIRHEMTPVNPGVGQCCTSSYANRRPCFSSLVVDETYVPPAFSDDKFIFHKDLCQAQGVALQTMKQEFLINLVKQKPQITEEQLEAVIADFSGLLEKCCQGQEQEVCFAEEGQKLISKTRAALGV

B1: D domain SEQ ID NO: 953 (designed binder)
chain: MGSWYIFKQELASIKLSLEALGGSEAELAHFEAEIAWFEWWLQWYKGKGNPEVEALRKEAAAIRDELQAYRHN
B2: D domain SEQ ID NO: 947 (designed binder)
chain: MGSWVYFKAHLAFIKWELEALGGSEAELANFESTIAEFEKYLQVYKGKGNPEVEALRKEAAAIRDELQAYRHN
B3: D domain SEQ ID NO: 929 (designed binder)
chain: MGSWHHFKYFLADIKSILEALGGSEAELAIFEVQIAYFEDLLQSYKGKGNPEVEALRKEAAAIRDELQAYRHN
B4: D domain SEQ ID NO: 933 (designed binder)
chain: MGSWAYFKGQLAYIKSGLEALGGSEAELAYFELRIAYFEHWLQNYKGKGNPEVEALRKEAAAIRDELQAYRHN
B5: D domain SEQ ID NO: 937 (designed binder)
chain: MGSWEHFKVELAGIKAYLEALGGSEAELALFEWAIADFESILQDYKGKGNPEVEALRKEAAAIRDELQAYRHN
B6: D domain SEQ ID NO: 938 (designed binder)
chain: MGSWIYFKDELAGIKKYLEALGGSEAELAMFEVAIADFEAILQKYKGKGNPEVEALRKEAAAIRDELQAYRHN
B7: D domain SEQ ID NO: 951 (designed binder)
chain: MGSWYFFKSRLAYIKVYLEALGGSEAELAGFEWEIAHFEEWLQRYKGKGNPEVEALRKEAAAIRDELQAYRHN
B8: D domain SEQ ID NO: 952 (designed binder)
chain: MGSWYIFKSELAWIKWYLEALGGSEAELANFEVEIATFETWLQGYKGKGNPEVEALRKEAAAIRDELQAYRHN
B9: D domain SEQ ID NO: 949 (designed binder)
chain: MGSWTLFKWDLAFIKWQLEALGGSEAELAWFEYEIAAFEDSLQNYKGKGNPEVEALRKEAAAIRDELQAYRHN
B10: D domain SEQ ID NO: 950 (designed binder)
chain: MGSWILFKEDLAFIKWQLEALGGSEAELAWFETTIANFESDLQKYKGKGNPEVEALRKEAAAIRDELQAYRHN
B11: D domain SEQ ID NO: 957 (designed binder)
chain: MGSWWVFKKTLAEIKWTLEALGGSEAELAYFEAEIAFFEFILQQYKGKGNPEVEALRKEAAAIRDELQAYRHN
B12: D domain SEQ ID NO: 928 (designed binder)
chain: MGSWSIFKYHLADIKLLLEALGGSEAELAYFEFLIADFEFTLQDYKGKGNPEVEALRKEAAAIRDELQAYRHN
B13: D domain SEQ ID NO: 935 (designed binder)
chain: MGSWVLFKDYLADIKHYLEALGGSEAELANFEHLIANFEGDLQTYKGKGNPEVEALRKEAAAIRDELQAYRHN
B14: D domain SEQ ID NO: 954 (designed binder)
chain: MGSWVRFKTELAYIKESLEALGGSEAELAMFESEIAIFEHSLQTYKGKGNPEVEALRKEAAAIRDELQAYRHN
B15: D domain SEQ ID NO: 930 (designed binder)
chain: MGSWLYFKYNLAVIKHWLEALGGSEAELAIFEMSIADFEYELQWYKGKGNPEVEALRKEAAAIRDELQAYRHN
B16: D domain SEQ ID NO: 931 (designed binder)
chain: MGSWFYFKYELAWIKHWLEALGGSEAELASFETHIAFFEHQLQYYKGKGNPEVEALRKEAAAIRDELQAYRHN
B17: D domain SEQ ID NO: 932 (designed binder)
chain: MGSWADFKWTLAYIKHRLEALGGSEAELAFFEMEIAYFEQSLQNYKGKGNPEVEALRKEAAAIRDELQAYRHN
B18: D domain SEQ ID NO: 955 (designed binder)
chain: MGSWYLFKTELAAIKYRLEALGGSEAELASFEYEIAWFEHILQFYKGKGNPEVEALRKEAAAIRDELQAYRHN
B19: D domain SEQ ID NO: 939 (designed binder)
chain: MGSWVLFKQELAWIKWLLEALGGSEAELAAFEEQIARFEHDLQKYKGKGNPEVEALRKEAAAIRDELQAYRHN
B20: D domain SEQ ID NO: 943 (designed binder)
chain: MGSWLLFKSDLAWIKWRLEALGGSEAELAEFEESIAMFEHWLQEYKGKGNPEVEALRKEAAAIRDELQAYRHN
B21: D domain SEQ ID NO: 942 (designed binder)
chain: MGSWLLFKSELAWIKWYLEALGGSEAELAEFEWNIAEFEKNLQKYKGKGNPEVEALRKEAAAIRDELQAYRHN
B22: D domain SEQ ID NO: 941 (designed binder)
chain: MGSWFLFKSELAWIKWRLEALGGSEAELAYFEYQIAEFEFWLQSYKGKGNPEVEALRKEAAAIRDELQAYRHN
B23: D domain SEQ ID NO: 944 (designed binder)
chain: MGSWLYFKSDLAWIKWRLEALGGSEAELADFEEAIAEFEQALQIYKGKGNPEVEALRKEAAAIRDELQAYRHN
B24: D domain SEQ ID NO: 940 (designed binder)
chain: MGSWVLFKQELAWIKWYLEALGGSEAELAAFEWEIAAFEQRLQIYKGKGNPEVEALRKEAAAIRDELQAYRHN
B25: D domain SEQ ID NO: 936 (designed binder)
chain: MGSWSLFKHRLANIKVYLEALGGSEAELADFETFIAYFEKDLQEYKGKGNPEVEALRKEAAAIRDELQAYRHN
B26: D domain SEQ ID NO: 945 (designed binder)
chain: MGSWKLFKYELAWIKWRLEALGGSEAELADFEASIAQFEKYLQTYKGKGNPEVEALRKEAAAIRDELQAYRHN
B27: D domain SEQ ID NO: 946 (designed binder)
chain: MGSWYLFKNELAWIKWRLEALGGSEAELADFEMVIAMFEDHLQEYKGKGNPEVEALRKEAAAIRDELQAYRHN
B28: D domain SEQ ID NO: 948 (designed binder)
chain: MGSWMYFKSHLAWIKWELEALGGSEAELAFFEDNIAQFEYWLQLYKGKGNPEVEALRKEAAAIRDELQAYRHN
B29: D domain SEQ ID NO: 934 (designed binder)
chain: MGSWENFKDTLAWIKEYLEALGGSEAELAGFEHRIAIFEHYLQYYKGKGNPEVEALRKEAAAIRDELQAYRHN
B30: D domain SEQ ID NO: 956 (designed binder)
chain: MGSWYWFKYELAEIKWHLEALGGSEAELAHFEHSIAVFESQLQQYKGKGNPEVEALRKEAAAIRDELQAYRHN
B31: D domain SEQ ID NO: 965 (designed binder)
chain: MGSWTHFKEDLAHIKDRLEALGGSEAELAAFELDIAWFEFMLQYYKGKGNPEVEALRKEAAAIRDELQAYRHN
B32: D domain SEQ ID NO: 972 (designed binder)
chain: MGSWSIFKQDLADIKDSLEALGGSEAELAMFEMDIAWFEHTLQYYKGKGNPEVEALRKEAAAIRDELQAYRHN
B33: D domain SEQ ID NO: 960 (designed binder)
chain: MGSWIIFKTDLARIKNYLEALGGSEAELATFERDIAWFEFMLQIYKGKGNPEVEALRKEAAAIRDELQAYRHN
B34: D domain SEQ ID NO: 969 (designed binder)
chain: MGSWVLFKQDLAMIKQRLEALGGSEAELAMFEYDIAWFEHMLQYYKGKGNPEVEALRKEAAAIRDELQAYRHN
B35: D domain SEQ ID NO: 966 (designed binder)
chain: MGSWYYFKERLAAIKDRLEALGGSEAELAIFEADIAWFEFMLQYYKGKGNPEVEALRKEAAAIRDELQAYRHN
B36: D domain SEQ ID NO: 962 (designed binder)
chain: MGSWQIFKQDLAAIKDYLEALGGSEAELAIFEFDIAWFEHMLQWYKGKGNPEVEALRKEAAAIRDELQAYRHN
B37: D domain SEQ ID NO: 964 (designed binder)
chain: MGSWFVFKEDLAGIKFILEALGGSEAELAMFETDIAWFEYMLQYYKGKGNPEVEALRKEAAAIRDELQAYRHN
B38: D domain SEQ ID NO: 958 (designed binder)
chain: MGSWVYFKDHLAEIKSQLEALGGSEAELALFEYDIAWFEFILQYYKGKGNPEVEALRKEAAAIRDELQAYRHN
B39: D domain SEQ ID NO: 961 (designed binder)
chain: MGSWMHFKQDLAEIKGYLEALGGSEAELAIFEMDIAWFEYMLQYYKGKGNPEVEALRKEAAAIRDELQAYRHN
B40: D domain SEQ ID NO: 959 (designed binder)
chain: MGSWVYFKHRLAEIKDQLEALGGSEAELAEFETDIAWFEWMLQYYKGKGNPEVEALRKEAAAIRDELQAYRHN
B41: D domain SEQ ID NO: 963 (designed binder)
chain: MGSWLAFKEDLAHIKSILEALGGSEAELAEFEHDIAWFEYMLQYYKGKGNPEVEALRKEAAAIRDELQAYRHN

The assay deals with T1, P26. The assay can be described thus: ELISA, format not described. Set-up: unit not given here.
For the molecule B1, the ELISA_avg came out at 19.4. The same measure for B2: 20.8; for B3: 8; for B4: 11.4. The same measure for B5: 18.1. The same measure for B6: 15.9; for B7: 30.1; for B8: 29.6. Molecule B9 showed an ELISA_avg of 12.1. The same measure for B10: 23.3; for B11: 18.6.

B12: the ELISA_avg stood at 20.2. The same measure for B13: 13.8; for B14: 20.5; for B15: 13.3.

B16 registered an ELISA_avg of 13.7.

In the case of B17, the ELISA_avg came to 31.5. B18 came in with an ELISA_avg of 20.1.

B19 showed an ELISA_avg of 29.5. For B20 the value was 33.3; for B21, 25.7. For B22 the value was 25.8; for B23, 21.2. For B24 the value was 22.5. Regarding B25, the ELISA_avg amounted to 19.6. For B26, the ELISA_avg was 23.4.

As to B27, the ELISA_avg turned out to be 31.1. The same measure for B28: 19.8; for B29: 19.2; for B30: 21.5. Consider B31, for which the ELISA_avg came out at 30.4. For B32 the value was 16.6.

B33 yielded an ELISA_avg of 16.7.

As for B34, the ELISA_avg came to 29.7. For B35 the value was 31.5.

For the molecule B36, the ELISA_avg worked out at 17.4. The same measure for B37: 14.2; for B38: 22.1; for B39: 18.9. The same measure for B40: 11.1; for B41: 18.6.
